“And” between values parts separate entries of the source, which are not always exact repeats. Identical values can stand only once.
Molecular target: 20S proteolytic core of the proteasome, mouse liver (mouse (endogenous in mouse liver)) (UniProt O55234)
Test: negative-stain electron microscopy; proteasomes co-purified with polyubiquitin conjugates on GstUBD beads, released at 37°C for 7 minutes, stained with 2% uranyl acetate; visual classification of side views, WT and PiZ samples

Sequence of UniProt O55234 (O55234 whole entry, looked up): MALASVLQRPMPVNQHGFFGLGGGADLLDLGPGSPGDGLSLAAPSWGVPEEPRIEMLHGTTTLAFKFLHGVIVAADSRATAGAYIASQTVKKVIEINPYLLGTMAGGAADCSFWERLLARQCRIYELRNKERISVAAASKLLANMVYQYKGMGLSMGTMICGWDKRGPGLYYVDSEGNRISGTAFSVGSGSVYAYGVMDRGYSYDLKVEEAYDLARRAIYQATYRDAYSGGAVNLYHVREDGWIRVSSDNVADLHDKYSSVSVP

Substance: 19S activator of the proteasome, mouse liver (from UniProt P62334 1-389) (complex)
- percent of proteasomes with at least one 19S cap: 93% and 90%

Reference: publication PMC4161314
